For data set [1], the target named is T1, Transferrin receptor 1 (TfR1, CD71) (Homo sapiens, UniProt P02786 SEQ:89-760). Description: BLI; no appreciable binding, single concentration. Particulars: tags: biotinylated, ACROBiosystems TfR-H82E5, immobilized on streptavidin biosensor; chain copies: 2; label: 5'-FAM.
Data set [2] concerns the target T2, Transferrin receptor 1 (TfR1, CD71), endogenous on cells (Homo sapiens, UniProt P02786 SEQ:89-760). Kind of data set: flow; H9 cells, apparent Kd, 4 C. Particulars: chain copies: 2 (stated homodimer); label: 5'-FAM or 5'-Cy5; multi-hairpin with extended stem.
Data set [3] has as its target T1, Transferrin receptor 1 (TfR1, CD71). Description: BLI; 25 C, 5.5 mM Mg, 1:1 fit. Particulars: tags: biotinylated, ACROBiosystems TfR-H82E5, immobilized on streptavidin biosensor, chain copies: 2. On the technique in general: BLI is a label-free optical method that tracks binding on a fibre tip over time.
Data set [4] addresses T2, Transferrin receptor 1 (TfR1, CD71), …. Kind of data set: flow; Jurkat cells, apparent Kd, 4 C. Particulars: chain copies: 2 (stated homodimer).
The target in data set [5] is T3, Cellular nucleic acid-binding protein (CNBP, ZNF9) (Homo sapiens, UniProt P62633 P62633:1-177). Description: BLI. The note with it: tags: His-tag, Novus Biologicals NBP2-22742, immobilized on Ni-NTA biosensor.
T3 sequence (P62633 whole entry, one chain of several): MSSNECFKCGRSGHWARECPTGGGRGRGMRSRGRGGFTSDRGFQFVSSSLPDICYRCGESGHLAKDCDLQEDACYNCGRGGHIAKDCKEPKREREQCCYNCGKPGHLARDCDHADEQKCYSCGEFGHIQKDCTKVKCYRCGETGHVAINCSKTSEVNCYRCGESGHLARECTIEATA
Data set [6] concerns the target T2, Transferrin receptor 1 (TfR1, CD71), …. Description: flow; H9 cells, apparent Kd (+/-0.2), 4 C. The note with it: chain copies: 2 (stated homodimer); label: 5'-FAM, 5'-Cy5 or 5'-biotin; hairpin.
The target of data set [7] is T1, Transferrin receptor 1 (TfR1, CD71). Kind of data set: BLI; negative control. Particulars: tags: biotinylated, ACROBiosystems TfR-H82E5, immobilized on streptavidin biosensor; chain copies: 2; label: 5'-FAM, 5'-Cy5 or 5'-biotin.
Data set [8] concerns the target T2, Transferrin receptor 1 (TfR1, CD71), …. Description: flow; H9 cells, apparent Kd (+/-13.0), 4 C. The note with it: chain copies: 2 (stated homodimer); label: 5'-FAM (with added 5' T), 5'-Cy5 or 5'-biotin; multi-hairpin on stem; G-quadruplex predicted.
Data set [9] shares this target. Kind of data set: flow; Jurkat cells, apparent Kd, 4 C; TfR1-independent component present. The note with it: chain copies: 2 (stated homodimer); label: 5'-FAM (with added 5' T), 5'-Cy5 or 5'-biotin; multi-hairpin on stem; G-quadruplex predicted.
Data set [10] has as its target T1, Transferrin receptor 1 (TfR1, CD71). Kind of data set: BLI; 25 C, 5.5 mM Mg, 1:1 fit; tRNA and salmon sperm DNA present. Particulars: tags: biotinylated, ACROBiosystems TfR-H82E5, immobilized on streptavidin biosensor; chain copies: 2; label: 5'-FAM (with added 5' T), 5'-Cy5 or 5'-biotin; multi-hairpin on stem; G-quadruplex predicted.
The target of data set [11] is T3, Cellular nucleic acid-binding protein …. Kind of data set: BLI; 2:1 heterogeneous ligand fit, first Kd; off-target. The note with it: tags: His-tag, Novus Biologicals NBP2-22742, immobilized on Ni-NTA biosensor; label: 5'-FAM (with added 5' T), 5'-Cy5 or 5'-biotin; multi-hairpin on stem; G-quadruplex predicted.
In data set [12] the target is Transferrin receptor 1 (mTfR1) (Mus musculus, UniProt Q62351 SEQ:89-763). Kind of data set: BLI; 200 nM mTfR1 over immobilized biotinylated aptamer. The note with it: tags: His-tag, Sino Biological 50741-M07H; chain copies: 2; label: 5'-FAM (with added 5' T), 5'-Cy5 or 5'-biotin; multi-hairpin on stem; G-quadruplex predicted.
Chain of Transferrin receptor 1 (mTfR1) (Q62351 89-763): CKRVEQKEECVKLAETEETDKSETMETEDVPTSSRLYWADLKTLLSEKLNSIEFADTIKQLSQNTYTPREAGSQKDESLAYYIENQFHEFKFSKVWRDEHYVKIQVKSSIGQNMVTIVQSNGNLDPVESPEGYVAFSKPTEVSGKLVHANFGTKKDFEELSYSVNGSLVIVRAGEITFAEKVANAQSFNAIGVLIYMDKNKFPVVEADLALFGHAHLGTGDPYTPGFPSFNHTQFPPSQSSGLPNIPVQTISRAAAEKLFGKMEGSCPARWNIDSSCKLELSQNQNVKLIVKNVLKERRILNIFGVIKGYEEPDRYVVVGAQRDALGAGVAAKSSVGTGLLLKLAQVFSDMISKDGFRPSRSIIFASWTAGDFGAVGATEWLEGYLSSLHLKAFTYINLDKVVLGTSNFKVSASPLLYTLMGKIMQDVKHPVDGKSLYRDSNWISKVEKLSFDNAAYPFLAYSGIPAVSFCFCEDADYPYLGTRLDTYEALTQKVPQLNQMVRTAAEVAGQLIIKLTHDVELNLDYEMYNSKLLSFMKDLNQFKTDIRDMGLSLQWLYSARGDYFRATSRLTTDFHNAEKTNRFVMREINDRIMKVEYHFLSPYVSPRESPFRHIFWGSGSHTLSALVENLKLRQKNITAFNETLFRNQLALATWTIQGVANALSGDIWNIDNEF
The target of data set [13] is T3, Cellular nucleic acid-binding protein …. Description: BLI; 2:1 heterogeneous ligand fit, second Kd; off-target. Particulars: tags: His-tag, Novus Biologicals NBP2-22742, immobilized on Ni-NTA biosensor; label: 5'-FAM (with added 5' T), 5'-Cy5 or 5'-biotin; multi-hairpin on stem; G-quadruplex predicted.
Data set [14] deals with T2, Transferrin receptor 1 (TfR1, CD71), …. Kind of data set: flow; activated CD4+ T cells, apparent Kd, 4 C. The note with it: chain copies: 2 (stated homodimer); label: biotin; 3' 8-nt toehold overhang, redesigned stem.
For data set [15] the target is unchanged. Description: flow; activated CD8+ T cells, apparent Kd, 4 C. The note with it: chain copies: 2 (stated homodimer); label: biotin; 3' 8-nt toehold overhang, redesigned stem.
The mark [16] stands for this setting: label: 5'-FAM, 5'-Cy5 or 5'-biotin, hairpin.

T1 sequence (P02786 89-760): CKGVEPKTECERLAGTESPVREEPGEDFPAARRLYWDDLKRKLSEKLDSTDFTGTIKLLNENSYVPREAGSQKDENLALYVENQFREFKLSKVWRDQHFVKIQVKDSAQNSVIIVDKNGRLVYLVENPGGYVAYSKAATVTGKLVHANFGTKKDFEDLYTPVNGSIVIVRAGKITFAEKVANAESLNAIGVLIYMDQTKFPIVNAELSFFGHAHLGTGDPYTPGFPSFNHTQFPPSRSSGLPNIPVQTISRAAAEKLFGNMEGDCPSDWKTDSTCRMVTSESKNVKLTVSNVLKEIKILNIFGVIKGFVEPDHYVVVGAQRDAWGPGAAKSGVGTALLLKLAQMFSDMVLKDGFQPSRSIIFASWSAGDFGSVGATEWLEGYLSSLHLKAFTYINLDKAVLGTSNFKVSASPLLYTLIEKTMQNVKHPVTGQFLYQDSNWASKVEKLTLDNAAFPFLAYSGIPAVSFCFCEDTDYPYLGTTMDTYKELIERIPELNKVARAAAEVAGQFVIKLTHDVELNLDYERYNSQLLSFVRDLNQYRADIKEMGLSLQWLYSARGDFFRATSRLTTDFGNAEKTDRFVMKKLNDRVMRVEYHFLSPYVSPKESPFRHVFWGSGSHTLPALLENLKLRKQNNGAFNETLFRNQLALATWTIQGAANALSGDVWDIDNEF
T2 sequence (P02786 89-760): as above

B1: JBA8.11 (ssDNA)
DNA: ATCCAGAGTGACGCAGCAGCCGGTCGCAGATGCAAATGCCCGACAGGGGGACGCGGGCTGCCATGGACACGGTGGCTTAGT
As for B1, in data set [1], the binding result is listed as “no binding”.

B2: JBA8.15 (ssDNA)
DNA: ATCCAGAGTGACGCAGCACTCTCGGGGGGTAGGTGGGAAGGGGGCCGCCCCCTGGGTTAGGCTTGGACACGGTGGCTTAGT
With B2, the binding result in data set [1] is on record as “no binding”.

B3: JBA8.26 (ssDNA)
DNA: ATCCAGAGTGACGCAGCAGCGTAAAGGGGGTGTTTGTGCGGTGTGGAGTGCGCGCGCTGCTGCTGGACACGGTGGCTTAGT
For the molecule B3, the Kd in [2] came out at 3.3 nM; in [3] (label: 5'-FAM or 5'-Cy5, multi-hairpin with extended stem) it was 6.87 nM.

B4: JBA8.1 (ssDNA)
DNA: ATCCAGAGTGACGCAGCAGCGTAAAGGGGGTGTTTGTGCGGTGTGGAGTGCGCGTGCTGCTGCTGGACACGGTGGCTTAGT
B4: the Kd in data set [4] (label: 5'-FAM or 5'-Cy5, multi-hairpin on stem, G-quadruplex predicted) was 5.5 nM.

B5: XQ-2d (ssDNA)
DNA: ACTCATAGGGTTAGGGGCTGCTGGCCAGATACTCAGATGGTAGGGTTACTATGAGC
As to B5, the binding result in [5] (setting [16]) is listed as “no binding”. Moreover, the Kd in data set [6] is 2.2 nM; in [3] (setting [16]), 14.4 nM.

B6: RANL (ssDNA)
DNA: ATCCAGAGTGACGCAGCAAATTCCAAACTCGAGTAAGCGTAGAGCCTCTCATCGCCTCAATAATGGACACGGTGGCTTAGT
Regarding B6, the binding result was “no binding” in data set [5] (label: 5'-FAM, 5'-Cy5 or 5'-biotin) and “no binding” in data set [7].

B7: tJBA8.1 (ssDNA)
DNA: GCAGCAGCGTAAAGGGGGTGTTTGTGCGGTGTGGAGTGCGCGTGCTGCTGC
For B7, the Kd in data set [8] was 25.6 nM; in [9], 10.9 nM; in data set [10], 25.1 nM; in data set [11] it was 1.85 nM; in data set [13], 8.07 nM. For the same molecule, the binding result in [12] was “no binding”.

B8: tJBA8.1 GGAGG (ssDNA)
DNA: GCAGCAGCGTAAAGGAGGTGTTTGTGCGGTGTGGAGTGCGCGTGCTGCTGC
As to B8, in [5], the binding result was “no binding”.

B9: tJBA8.1 GGGGC (ssDNA)
DNA: GCAGCAGCGTAAAGGGGCTGTTTGTGCGGTGTGGAGTGCGCGTGCTGCTGC
Regarding B9, in [5], the binding result is “no binding”.

B10: tJBA8.1 GGGAG (ssDNA)
DNA: GCAGCAGCGTAAAGGGAGTGTTTGTGCGGTGTGGAGTGCGCGTGCTGCTGC
As for B10, the binding result in data set [5] is on record as “no binding”.

B11: JBA8.7 (ssDNA)
DNA: ATCCAGAGTGACGCAGCAACCACAGATGCAAATGCGCGAGAGCGGGACGGTTTGCTAGGCTCATGGACACGGTGGCTTAGT
In the case of B11, the binding result in data set [1] was “no binding”.

B12: rvCD71apt (JBA1.2) (ssDNA)
DNA: GGAGTCACACGCATTAGCGTAAAGGGGGTGTTTGTGCGGTGTGGAGTGCGCGTGCTAATGCTGGAGTGTTTCCCAGGACCC
Turning to B12, the Kd in data set [14] came to 28.5 nM; in data set [4] (label: biotin, 3' 8-nt toehold overhang, redesigned stem), 35.2 nM; in data set [15] it was 35 nM.

B13: JBA8.4 (ssDNA)
DNA: ATCCAGAGTGACGCAGCAACCCAAACCACCAGCCGGGGATGCAAACACCGCACAGGGAACGGCTGGACACGGTGGCTTAGT
In the case of B13, the binding result in [1] is “no binding”.

B14: JBA8.3 (ssDNA)
DNA: ATCCAGAGTGACGCAGCAGGGGCCGCGGATGCAAACGCCCGATAGGGGGACGGCACTGGAGCTTGGACACGGTGGCTTAGT
Regarding B14, the binding result in [1] is on record as “no binding”.
